What was measured:
Experiment in all cases: SDS-PAGE under non-reducing conditions
[1] = target: FG-IncD M (FLAG-tagged TM region of IncD) (Chlamydia trachomatis)
[2] = target: FG-IncD ΔC (aa 1-91) (Chlamydia trachomatis)
[3] = target: FG-IncD ΔN (38-146) (Chlamydia trachomatis)

FG-IncD M (FLAG-tagged TM region of IncD) (domain or fragment)
stoichiometry N [1]: 2

FG-IncD ΔC (aa 1-91) (domain or fragment)
stoichiometry N [2]: 2

FG-IncD ΔN (38-146) (domain or fragment)
stoichiometry N [3]: 2

— publication PMC6219635
